{
  "source": "patent US20230079150A1",
  "about": "“METHODS FOR PREVENTION OR TREATMENT OF VIRUS-INDUCED ORGAN INJURY OR FAILURE WITH IL-22 DIMER” (priority 2020, published 2023)",
  "molecules": {"B1": {"name": "F-652: recombinant IL-22 dimer consisting of two monomeric subunits each comprising a sequence shown in SEQ ID NO: 24 (protein)", "chain 1": "APISSHCRLDKSNFQQPYITNRTFMLAKEASLADNNTDVRLIGEKLFHGVSMSERCYLMKQVLNFTLEEVLFPQSDRFQPYMQEVVPFLARLSNRLSTCHIEGDDLHIQRNVQKLKDTVKKLGESGEIKAIGELDLLFMSLRNACIGSGGGSGGGGSGGGGSVECPPCPAPPVAGPSVFLFPPKPKDTLMISRTPEVTCVVVDVSHEDPEVQFNWYVDGVEVHNAKTKPREEQFNSTFRVVSVLTVVHQDWLNGKEYKCKVSNKGLPASIEKTISKTKGQPREPQVYTLPPSREEMTKNQVSLTCLVKGFYPSDIAVEWESNGQPENNYKTTPPMLDSDGSFFLYSKLTVDKSRWQQGNVFSCSVMHEALHNHYTQKSLSLSPGK", "chain 2": "B1 chain 1", "modifications": "homodimer"}},
  "test_system": "Human umbilical vein endothelial cells (HUVEC)",
  "test": "Glycocalyx quantification (WGA staining) in HUVECs with or without LPS",
  "type": "cell-based",
  "protocol": "Human umbilical vein endothelial cells (HUVEC) were purchased from the American Type Culture Collection. Cells were initially grown in 2% gelatin-coated 10-cm plastic dishes using M200 medium supplemented with low serum growth supplement (LSGS) and penicillin/streptomycin in a cell culture incubator at 37° C. with 5% CO2 atmosphere. Cells were passaged by digestion in 0.25% trypsin in Hanks' Balanced Salt Solution (HBSS) after reaching 80% confluence. Cells were used for experiments between passages 1-3. For glycocalyx quantification, HUVECs were plated in 48-well plastic cell culture plates coated with 2% gelatin, at a confluence of approximately 80%. M200+LSGS+penicillin/streptomycin was supplemented with 1% bovine serum albumin (BSA) to support glycocalyx growth. Cells were cultured for 24 hours to allow glycocalyx development before LPS exposure.\nAfter completion of the LPS exposure with or without F-652, HUVECs were fixed by addition of concentrated formaldehyde solution directly to the culture medium to yield a final formaldehyde concentration of 3.5%. […] Glycocalyx and nuclei (4′,6-diamidino-2-phenylindole) were imaged on an EVOS fluorescence microscope under identical conditions. […] ImageJ software was used to quantify glycocalyx fluorescence intensity overlaying the nuclei of each visible cell.",
  "data": [
    {"molecule": "B1", "values": [
      {"measurement": "glycocalyx staining intensity", "setting": "0.375 μg/mL F-652 alone, 24 hours, control 6.09", "value": 5.08, "unit": "AU"},
      {"measurement": "glycocalyx staining intensity", "setting": "1 μg/mL LPS and 0.375 μg/mL F-652, 24 hours, control 6.09, LPS 5.10", "value": 5.86, "unit": "AU"}
    ]}
  ]
}
